# US20230227520A1 (MAX PLANCK GESELLSCHAFT ZUR F RDERUNG DER WISSENSCHAFTEN E V, published 2023)
# Where two headings read alike, the source gives them in different places.
# T1: G-CSFR on NFS-60 cells (murine myeloblastic cell line) (mouse, UniProt P40223 26-837)
# T1 sequence (looked up): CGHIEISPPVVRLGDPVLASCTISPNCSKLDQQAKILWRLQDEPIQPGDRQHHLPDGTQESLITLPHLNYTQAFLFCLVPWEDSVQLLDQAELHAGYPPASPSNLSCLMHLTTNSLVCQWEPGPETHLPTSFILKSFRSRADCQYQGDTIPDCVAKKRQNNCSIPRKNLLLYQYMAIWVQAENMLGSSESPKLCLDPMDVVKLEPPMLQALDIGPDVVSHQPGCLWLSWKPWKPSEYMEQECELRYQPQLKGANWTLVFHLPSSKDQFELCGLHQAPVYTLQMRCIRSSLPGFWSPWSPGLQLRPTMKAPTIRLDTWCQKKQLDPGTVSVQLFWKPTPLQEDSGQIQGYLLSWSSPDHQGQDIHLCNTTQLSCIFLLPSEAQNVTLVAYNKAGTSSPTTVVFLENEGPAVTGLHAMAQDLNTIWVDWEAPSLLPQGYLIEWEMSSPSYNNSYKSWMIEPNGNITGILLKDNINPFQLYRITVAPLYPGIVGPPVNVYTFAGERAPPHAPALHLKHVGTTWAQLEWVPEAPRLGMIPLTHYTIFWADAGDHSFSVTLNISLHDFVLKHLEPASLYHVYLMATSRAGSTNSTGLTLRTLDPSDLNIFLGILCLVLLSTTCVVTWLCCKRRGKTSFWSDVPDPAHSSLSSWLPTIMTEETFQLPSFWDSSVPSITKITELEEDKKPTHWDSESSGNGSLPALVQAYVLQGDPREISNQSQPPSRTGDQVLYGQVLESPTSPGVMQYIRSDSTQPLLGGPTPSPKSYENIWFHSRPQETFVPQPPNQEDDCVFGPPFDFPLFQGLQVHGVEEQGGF
# T2: G-CSF Receptor (G-CSFR) (R&D systems 381-GR-050/CF), recombinant human (human, UniProt Q99062 25-627, limits assumed)
# T2 construct: Bought protein, amine-coupled to a CM5 chip; also called rhG-CSFR; human G-CSF receptor
# T2 sequence (looked up): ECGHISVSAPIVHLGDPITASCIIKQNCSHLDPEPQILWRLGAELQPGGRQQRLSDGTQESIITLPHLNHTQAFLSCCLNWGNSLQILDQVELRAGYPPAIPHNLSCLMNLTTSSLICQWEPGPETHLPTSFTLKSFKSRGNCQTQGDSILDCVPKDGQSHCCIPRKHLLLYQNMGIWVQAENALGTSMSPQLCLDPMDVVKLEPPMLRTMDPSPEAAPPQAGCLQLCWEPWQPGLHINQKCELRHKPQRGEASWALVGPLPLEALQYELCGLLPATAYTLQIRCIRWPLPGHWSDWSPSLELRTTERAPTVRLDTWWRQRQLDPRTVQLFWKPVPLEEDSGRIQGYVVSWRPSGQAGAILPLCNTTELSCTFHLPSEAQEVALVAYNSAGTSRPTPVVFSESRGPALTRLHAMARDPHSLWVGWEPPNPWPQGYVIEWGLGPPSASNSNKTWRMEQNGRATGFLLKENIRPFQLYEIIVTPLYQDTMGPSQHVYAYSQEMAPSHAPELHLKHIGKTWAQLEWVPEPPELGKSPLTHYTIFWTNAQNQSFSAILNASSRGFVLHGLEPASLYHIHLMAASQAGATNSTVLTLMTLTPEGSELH
# B1: Boskar_1 (designed binder)
# chain: AALAAELAEIYKGLAEYQARLQSLEGISPELGPALDALRLDVADFATTLAQAMEEKKTNLPQSFLLKALEQIRKIQADAAALREKLAATYTGTDRAAAAVEIAAQLEAFLEKAYEILRHLAAA
# B2: boskar4_t2 (designed binder)
# chain: AALAAALAEIYKGLAEYQARLKSLEGISPELGPALDALRLDMADFATTMAQAMEEGLDSLPQSFLLKALEQIRKIQADAAALREKLAATYKGNDRAAAAVEIAAQLEAFLEKAYQILRHLAAAGGGGSSGGGGSSGGGGSSGGGGSSAALAAALAEIYKGLAEYQARLKSLEGISPELGPALDALRLDMADFATTMAQAMEEGLDSLPQSFLLKALEQIRKIQADAAALREKLAATYKGNDRAAAAVEIAAQLEAFLEKAYQILRHLAAA
# B3: boskar4_st2 (designed binder)
# chain: AALAAALAEIYKGLAEYQARLKSLEGISPELGPALDALRLDMADFATTMAQAMEEGLDSLPQSFLLKALEQIRKIQADAAALREKLAATYKGNDRAAAAVEIAAQLEAFLEKAYQILRHLAAAGGGGSSAALAAALAEIYKGLAEYQARLKSLEGISPELGPALDALRLDMADFATTMAQAMEEGLDSLPQSFLLKALEQIRKIQADAAALREKLAATYKGNDRAAAAVEIAAQLEAFLEKAYQILRHLAAA
# B4: boskar4_15rl (designed binder)
# chain: AALAAALAEIYKGLAEYQARLKSLEGISPELGPALDALRLDMADFATTMAQAMEGGGGSGGGGSGGGGSQSFLLKALEQIRKIQADAAALREKLAATYKGNDRAAAAVEIAAQLEAFLEKAYQILRHLAAA
# B5: Moevan_t2 (designed binder)
# chain: EAAAAARDESAYLKLQEQMRKIDADAAALSETRTIEELDTFKLDVADFVTTVVQLAEELEHRFGRNRRGRTEIYKIVKEVDRKLLDLTDAVLAKEKKGEDILNMVAEIKALLINIYKGGGGSSGGGGSSGGGGSSGGGGSSEAAAAARDESAYLKLQEQMRKIDADAAALSETRTIEELDTFKLDVADFVTTVVQLAEELEHRFGRNRRGRTEIYKIVKEVDRKLLDLTDAVLAKEKKGEDILNMVAEIKALLINIYK
# notes: Tandem fusion of two Moevan copies joined by a 24 amino acid GS linker
# B6: moevan_st2 (designed binder)
# chain: EAAAAARDESAYLKLQEQMRKIDADAAALSETRTIEELDTFKLDVADFVTTVVQLAEELEHRFGRNRRGRTEIYKIVKEVDRKLLDLTDAVLAKEKKGEDILNMVAEIKALLINIYKGGGGSSEAAAAARDESAYLKLQEQMRKIDADAAALSETRTIEELDTFKLDVADFVTTVVQLAEELEHRFGRNRRGRTEIYKIVKEVDRKLLDLTDAVLAKEKKGEDILNMVAEIKALLINIYK
# B7: sohair2_15r (designed binder)
# chain: MTSDYIIEQIQRKQEEARLKVEEQERKLEAVKEASKRGVSSDQLLNLILDLADIITTLIQIIEESNEAIKELIKNQGGGGSGGGGSGGGGSDYIIEQIQRKQEEARLKVEEQERKLEAVKEASKRGVSSDQLLNLILDLADIITTLIQIIEESNEAIKELIKNQ
# B8: bika1 (designed binder)
# chain: SKEVLEQSLFLKLDEQVRKLLADIHAIKIDRITGNMDKQKLDTAYLDVADIETTLYQLIEVSH
# B9: bika2 (designed binder)
# chain: SKEVLEQSLFLKLDEQVRKLLADIHAIKIDRITGNMDKQKLDTLYLDVADIETTLYQLIEVSH
# B10: Boskar_2 (designed binder)
# chain: AALAAELAEIMKGLQEYQARLKSLEGISPELGPALDALRLDMADFATTMAQMMEENPSDLPQSFLLKALEQIRKIQADAAALREKLAATYPNSQRAAAAVEIAAQLEAFLEKAYQILRHLAAA
# B11: Moevan (designed binder)
# chain: MEAAAAARDESAYLKLQEQMRKIDADAAALSETRTIEELDTFKLDVADFVTTVVQLAEELEHRFGRNRRGRTEIYKIVKEVDRKLLDLTDAVLAKEKKGEDILNMVAEIKALLINIYK
# notes: also called Movean
# B12: Disohair_1 (designed binder)
# chain: MTSDYIIEQIQRKQEEARLKVEEMERKLEEVKEASKRGVSSDQLLNLILDLADIITTLIQIIEESNEAIKELIKNQ
# B13: Disohair_2 (designed binder)
# chain: MTSDYIIEQIQRKQEEARLKVEEQERKLEAVKEASKRGVSSDQLLNLILDLADIITTLIQIIEESNEAIKELIKNQ
# notes: Expressed with an N-terminal hexa-His-tag and thrombin site
# B14: Sohair (designed binder)
# chain: MTSDYIIEQIQRKQEEARLKVEEMERKLEAVKEASKRGVSSDQLLNLILDLADIITTLIQIIEESNEAIKELIKNQKGPTSDYIIEQIQRDQEEARKKVEEAEERLERVKEASKRGVSSDQLLDLIRELAEIIEELIRIIRRSNEAIKELIKNQ
# Legend:
# [1] = target: T1, G-CSFR on NFS-60 cells (murine …); assay: cell-based or functional assay
# [2] = target: T1, G-CSFR on NFS-60 cells (murine …); assay: cell-based or functional assay; remark: listed apart in the source
# [3] = target: T2, G-CSF Receptor (G-CSFR) (R&D systems …); assay: SPR (Biacore), G-CSFR immobilised on the chip, Moevan_t2 2 nM - 32 nM as analyte, five traces with binding model fit [panel E]
# [4] = target: T2, G-CSF Receptor (G-CSFR) (R&D systems …); assay: SPR, Biacore X100 single-cycle kinetics, G-CSFR amine-coupled on CM5, 1:1 binding model
# Protocol: To test whether the grafted epitope residues mediate binding of the designs to the G-CSF receptor, the inventors also performed SPR measurements for the Moevan and diSohair2 initial design templates (Moevan_control and diSohair_control, respectively), and no binding was observed (FIG. 20C,F).
# Single-cycle kinetics experiments were performed on a Biacore X100 system (GE Healthcare Life Sciences). G-CSF Receptor (G-CSFR) (R&D systems 381-GR-050/CF) was diluted to 50 μg/ml in 10 mM acetate buffer pH 5.0 and immobilized on the surface of a CM5 sensor chip (GE Healthcare 29149604) using standard amine coupling chemistry. The designs and rhG-CSF (USP RS Filgrastim, Sigma-Aldrich 1270435) were diluted in running buffer (10 mM HEPES, 150 mM NaCl, 3.4 mM EDTA, 0.005% v/v Tween-20). Analyses were conducted at 25° C. at a flow rate of 30 μl/min. Five sequential 10-fold increasing concentrations of the sample solution (for the designs from 0.5 nM to 50 μM, and for rhG-CSF from 0.05 to 500 nM) were injected over the functionalized sensor chip surface for 180 s, followed by a 180 s dissociation with running buffer. At the end of each run, the sensor surface was regenerated with a 240 s injection of 10 mM glycine-HCl pH 2.0. Each experiment was performed two times for rhG-CSF, Boskar3, Boskar4, diSohair2, Moevan, and Moevan_t2. Association rate (ka), dissociation rate (kd), and equilibrium dissociation (Kd) constants were initially obtained by global fitting of the experimental reference-subtracted data to a 1:1 interaction model using the Biacore X100 evaluation software (v.2.0.1). To evaluate if a kinetics model that depends on double the analyte stoichiometry improves the goodness of fit to the data, the following rate integral was used: […]
# [5] = target: T2, G-CSF Receptor (G-CSFR) (R&D systems …); assay: SPR (Biacore), G-CSFR immobilised on the chip, Moevan 2 nM - 32 nM as analyte, five traces with binding model fit [panel D]
# [6] = target: T2, G-CSF Receptor (G-CSFR) (R&D systems …); assay: SPR (Biacore), G-CSFR immobilised on the chip, diSohair2 250 nM - 4000 nM as analyte, five traces with binding model fit [panel B]
binder,measurement,setting,value
B1,"NFS-60 EC50 (ng/mL), proliferation of NFS-60 cells",[1],2170 ng/mL
B2,"NFS-60 EC50 (ng/mL), proliferation of NFS-60 cells",[2],4.2 ng/mL
B3,"NFS-60 EC50 (ng/mL), proliferation of NFS-60 cells",[2],0.202 ng/mL
B4,"NFS-60 EC50 (ng/mL), proliferation of NFS-60 cells",[2],48.5 ng/mL
B5,Kd,[3],1.2 nM
same,koff,[3],0.00036 s⁻¹
same,kon,[3],300000 M⁻¹ s⁻¹
same,"NFS-60 EC50 (ng/mL), proliferation of NFS-60 cells",[2],47.1 ng/mL
same,Kd,[4],1.1 nM
same,koff,[4],0.0003 s⁻¹
same,kon,[4],310000 M⁻¹ s⁻¹
B6,"NFS-60 EC50 (ng/mL), proliferation of NFS-60 cells",[2],8.89 ng/mL
B7,"NFS-60 EC50 (ng/mL), proliferation of NFS-60 cells",[2],228 ng/mL
B8,"NFS-60 EC50 (ng/mL), proliferation of NFS-60 cells",[2],63 ng/mL
B9,"NFS-60 EC50 (ng/mL), proliferation of NFS-60 cells",[2],98 ng/mL
B10,"NFS-60 EC50 (ng/mL), proliferation of NFS-60 cells",[1],3220 ng/mL
B11,Kd,[5],21.7 nM
same,koff,[5],0.00599 s⁻¹
same,kon,[5],275000 M⁻¹ s⁻¹
same,"NFS-60 EC50 (ng/mL), proliferation of NFS-60 cells",[1],356 ng/mL
same,Kd,[4],21 nM
same,koff,[4],0.0059 s⁻¹
same,kon,[4],290000 M⁻¹ s⁻¹
B12,"NFS-60 EC50 (ng/mL), proliferation of NFS-60 cells",[1],2380 ng/mL
B13,Kd,[6],4.55 µM
same,koff,[6],0.00949 s⁻¹
same,kon,[6],2080 M⁻¹ s⁻¹
same,"NFS-60 EC50 (ng/mL), proliferation of NFS-60 cells",[1],396 ng/mL
same,Kd,[4],4500 nM
same,koff,[4],0.0095 s⁻¹
same,kon,[4],2100 M⁻¹ s⁻¹
B14,"NFS-60 EC50 (ng/mL), proliferation of NFS-60 cells",[1],5050 ng/mL
